The nanobody polyreactivity screen of Harvey et al. (2022)

Assay: yeast display, Sf9 membrane polyspecificity reagent, FACS + sequencing; frameworks hold sequencing errors
Outline: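 In a synthetic yeast display library (Saccharomyces cerevisiae BJ5465), nanobody expression was induced with galactose for 36–48 hours. FACS gates were set low and high (top ~1%) using anti-HA fluorescence for expression and streptavidin fluorescence for binding of the Sf9 membrane reagent. Each polyreactivity label is drawn from the gate of origin.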

Sequence | polyreactivity (PSR sort gate)
QVQLVESGGGLVQAGGSLRLSCAASGSTFVINAMGWYRQAPGKERELVAAIDFSGGSTYYADSVKGRFTISRDNAKNTVYLQMNSLKPEDTAVYYCAAVLSSYGYGGYTWYDYEYWGKGTQVTVSS | high polyreactivity
QVQLVESGGGLVQAGGSLRLSCAASGSTSVVNAMGWYRQAPGKERELVATITRSAGRTYYADSVKGRFTISRDNAKNTVYLQMNSLKPEDTAVSYCAKDTDISTHHSKGRAKSRYDYWGQGTQVTVSS | low polyreactivity
QVQHVESGGCLLQAGGSLRLSCAASGSIFEPYTMGWYRQAPGKERELVAAITGSGGSTFYADSVKGRFTISRDNAKNTVYLQMNSLKPEVTALYYCNAYAYPYTDVDYWVQGTQVTVSS | low polyreactivity
QVQLVESGGGLVQAGGSLRLSCAASGSTFPPNAMGWYRQAPGKERELVAAISERGGSTYYADSVKGRFTISRDNAKNTVYLLMNSLKPEDTAVYYCAVDYYYLMYWGQGTQVTVSS | low polyreactivity
QVQLVESWGGLVQAGGSLRLSCAAYGIIFKYYAMGWYRQAPGKERELVAVITSNGARTYYADSVKGRFTISRDNAKNTVYLQMNSLKPEDTAVYYCNAYRLSVSVGYDYCGQGTQVTVSS | high polyreactivity
QVQLVESGGGLVQAGGSLRLSCAASGSIFGYYTMGWYIQAPGKERELVARITRGGSTYYADSVKGRFTISRDNAKNTVYLQLNSLKPEDTAVYYCAARRVNAGWTYGLRGNYWGQGTQVTVSS | low polyreactivity
QVQLVESGGGLVQAGGSLRLSCAASGSMFIWNAMGWYRQAPGKARELVAAISFTGTSTYYADSVKGRCTSSRDNAKNTVYLQMNSLKPEDTAVYYCNTDYRGSQYDYWVQGTQVTVSS | low polyreactivity
QVQLVESGGGLVQAGGSLRLSCAASGRTFYSYAMGGYRQAPGKERELVARITWSGGTYYADSVKGRFTISRDNAKNTVYLQMNSLKPEDTAVYYCAAKYWKWYHYGFGYWGQGTQVTVSS | high polyreactivity
QVQLLESGGGLVQAGGSLRLSCAASGNTYPVNARGWYRQAPGKERDLVAAISRTGASTYYADSVKGRFTISRDNAKNTVYLQMNSLIPEDTAVYYCAKYLKTPHNRRRVEALGYWGQGTQVTVSS | high polyreactivity
QVQLVESGGGIVQAGGSLRLSCAASGIIFDVYAMGLYRQAPGTERELVAAISKRGGRTYYADSVKWRFTISRDNAKNTVYLQMNSLKPEDTAVYYCAADGQYKHFDYWGQGTQVTVSS | high polyreactivity
QVQLVESGGGLVQAGGSLRLSCAASGSTYQGYAMGWYRQAPGKERELVAAISGRSGSTYYADSVKGRFTISRDNAKNTVYLEMNSLKQEDTAVYYFNAVTGVNPSLDYWGQGTQVTVSS | high polyreactivity
QVQLVESGGGLVQAGGSLRLTCAASGFTFGRYTMGWYRQAPGKERELVAAISGRGSRTYYADSVKGRFTISRDNAKNTVYLQMSSLKPVDTAVYYCAADVNVRSDMDYWGQGTQVTVSS | high polyreactivity
QVQLVESGGGLVQAGGSLRLSCAASGITFPYYAMGWYRQAPGKERELVAAINGNGGRTYYADSVKGRFTISRDNAKNNVYLDMNSLKPEDTAVYYCADRVVHVKGPRMDYWGQGTQVTLSS | high polyreactivity
QVQLVESGGGLVQAGGSLRLSCAASGFTFRYYAMGWYRQAPGKEREFVAAIRRSGANTYYADSVKGRFTISRDNAKNTVYLQMNSLKPEDTAVYYCAADKNYYPYKFDYWGQGTQVTVSS | high polyreactivity
QVQLVESGGGLVQAGGSLRLICAASGRIFYPYAMGWYRPAPGKERELVATITRTGSTYYADSVKGRFTISRDNAKNTVYLHMNSLKPEDTAVYYCAVQRSYVGPRQYNYWGQGTQVTVSS | high polyreactivity
QVQLVESGGGLVQEGGSLRLICAASGLIFRTYTMGWYRQAPGKERELVATITRRGGTTYYADSVKGRFTISRDNAKNTVYLQMNSLKPEDTAVYYCAKSPYYTWKYDYWGQGTQVTVSS | high polyreactivity
QVQLVESGGRLVQEGGSLRLRCAASGSIFSGYAMGWSRQAPGKERELVAVITRGGNTNYADSVKGRFTISRDNAKNTVSLQMNSLTPEDTAVYYCAVDLRKSYRHKFDFNYWGQGTQVTVSS | low polyreactivity
QVQLVESGGGLVQAGGSLRLSCAASGNTFRRNVMGWYRQAPGKERELVAAINRGGSTTDADSVKGRFTISRDNAKNTVYLQMNSLKPEDTAVYYCNARTLFKWRHGHYYAYDYWGQGTQVTVSS | high polyreactivity
QVQLVESGGGLVQAGGSLRLSCAASGITFERYAMGWYRQAPGKERELVAAITYRGGSTYYADSVKGRFTISRDNAKNTVYLQMNSLKPEDTAVYYCNRARLRGAYIYWGQGTQVTVSS | high polyreactivity
QVQLVESVGGLVQAGGSLRLSCAASGFIFFFYAMGWYRQAPGKERELVAAISDGVSTYYADSVKGRFTISSDNAKNTVYLQMNSLKPEDTAVYYCAVSRGDEPEFDYWGQGTQVTVSS | low polyreactivity
QVQLVESGGGLVQAGGSLRLSCAASGFTFAYYTMGWYRQAPGKERELVVVINRSGSTNYADSVKGRFTISRDNAKNTVYLQMNSLKPEDTAVYYCATGVALRYGYWGQGTQVTVSS | low polyreactivity
QVQLVVSGGGLVQAGGSLRLSCAASGRTFRSYAMGWYRQAPGKERELVAAISYGGGSTYYADSVKGRFTISRDNAKNTVYLQMNSLKPEDTAVYYCAAAVYKRGGYDYWGQGTQVTVSS | high polyreactivity

Sequence | polyreactivity (PSR sort gate)
QVQLVESGGGLVQAVGSLRLSCAASGSTLTSYGMGWYRQAPGKERELVAAISRNGGGTYYADSVKGRFTISRDNAKNTVYLQMNSLKPEDTAGYYCAVVRYSSRYDYWGQGTQVTVSS | high polyreactivity
QVQLVESGGGLVQAGGSLRLSCAASGFTFRSNMGWYRQAPGKEREFVAAITKSGGSTYYADSVKGRFTISRDNAKNTVYLQMNSLKPEDTAVYYCATKVDTYVFRYYYWGQGTQVTVSS | high polyreactivity
QVQLVESGGGLVQAGGSLRLSCAASGFIFERYTMGWYRQAPGKERELVAAISDSGGSTYYADSVKGRFTISRDNAKNTVYLQMNSLKPEDTAVYYCATTQYTTYGRRYYWGQGTQVTVSS | high polyreactivity
QVQIVESGRGLFQAGGSLRLSCAASGSIFRFNVMGWYRPATGKECELVASISDSGDNTNYADSVKGRFTISGDNAKNPVDLLMNSLKPEDTAVYYCAARGSRWYIAVDYRGQGTQVTVSS | low polyreactivity
QVQLVESGGGLVQAGASLRLSCAASGRIFRYNAMGWYRQAPGKERELVAAISSGGSRNYADSVKGRFTTSRDNSKNTVYLQMNSLKPEDTAVYYCNAESVHRYPGWGYDYWGHGTQVTVSS | low polyreactivity
QVKLEESGGGLVQEGGSLRISCAASVRIFGNYSMGWSRQAPGKEMELVAAIDLSGDSTYYADSVKGRFTISRDNAKNTVYLQMNSLKPEDTAVYYCAATDWFSEYYWGQATQVTVSS | low polyreactivity
QVQLVESGGGLVQAGGSLRLSCAASGRIFTRNTMGWYRQAPGKERELVAAITSRGGSTYYADSVKGRFTISRDNAKNTVYLQMNSLKPEDTAVYYCAADKPRSYYYWGQGTQVTVSS | high polyreactivity
KVQLVEKGGGLVQAGGSLRLSSAASGLNFTIYSMGWYRQEPGKERELVATISQGGGSTYADSVKGRFTISRDNAKNTVYLQMNSLKPEDTAVYYCNAKVVWYYLYDYWGQGTQVTVSS | low polyreactivity
QVQLVESGVGLVQAGGSLRLSCASSGLTLNQYAIGWYRQAPGKERELVAAITRGGGSTYYADSVKGRFTISRDNAKYTVYLQMNSLKPEDTAVYYCATDNWWPTYHYQGGYYWGQGTQVTVSS | low polyreactivity
QVQLVESGGGLVQARGSRRLSCAASGFIFRFNAMGWYRQAPGKERELVASITGSGGITYADSVKRRFTMSRDNAKNTVFLPMHSLKPDDTAVYYSAARGDGYQSGWVADWAPFYYWRQGTQVTVSS | high polyreactivity
QVQLVESGGGLVQAGGSLRLSCAASGSTFVPYAMGWYRQAPGKERELVAAITDSGGSTSYADSVKGRFTISRDKAKNSVYLQMNSLKPEDTAVYYCAAQTRAIVQKYPGDDYWGQGTQVTVSS | low polyreactivity
QVQLVESGGGLVQAGGSLRLSCAASGSIFYAYAMGWYIQAPGKERELVAGINTRGGSTYYADSVKGRFTISRDNAKNTVYLQMNSLKPEDTAVYYCAKGTAPIPYRGRVGTSKSDYWGQGTQVTVSS | low polyreactivity
QVKLVESCGGLVQAGGSLRLSCAASGYISSFNTKGWYRQAPGKERELVAAITRDGSTYYADSVKGRFTISRDNAKNSVYLQMNSLKPEYTAVYYCAARGWYATWLYYYWGQGSQVTVSS | high polyreactivity
QVQLVESGGGLVQAGGSLRLSCAASGSTFNSNAMGWYRQAPGKERELVAAINYSGGSTYYADSVKGRFTISRDNAKNTVYLQMNSLKPEDTAVYYCNKVYFDHYLSRVYYWGQVTQVTVSS | high polyreactivity
QVQLVESGGGLVQAGGSLRLSCAASGSIFAVYVMGWYRQAPGKERDFVAAITYSGTSTNYADSVKGRFTISRDNAKNTVYLQMNSLKPEDTAVFYCAADVRSSNGHYTLYDYWGQGTQVTVSS | high polyreactivity
QVQLVESGGGLVQAGGSLRVSCAASGSTFPYYTMGWYRQAPGKERELVDVMTIRGGSTYYAHSVNGRCTHSRDNAKNTVNLQMNSLKPEDTAVNYCAPTGQLQGWYDMYYWGQGTQVTVSS | low polyreactivity
QVQLVESGGGLVQAGGSLRLSCAASGSTIIRNAMGWYRQAPGKERELVAAISTSAGRTHYADSVKGRFTISRDHAKNTVYLNMNSLKPEDTAVSYCATRGKGHYYYWGQGTKVTVSS | high polyreactivity
QVQLVESGGGLVQAGGSLRLSCAASGRTFGLYAMGWYRQAPGKERELVAAISWGGGRTYYADSVKGRFTISRDNAKNTVYLQMNSLKPEDTAVYYCNAVYSPRYYVGGYDYWGQGTQVTVSS | high polyreactivity
QVQLVESGGGLVQPGGSLRLSCAASGFIFRNYAMGWYRQAPGQERELVAAITRSGDNTYYADSVKGRFTISRDNAKNTVYLQMNSLKPEDTAVYYCAARDVQYQQALGGDYWGQGTQVTVSS | low polyreactivity
QVQLVESGGRLVQAGGSLRLSCAASGTFAVYTMGWYRQAPGKERELVAAISSGGSTYYADSVKGRFTISRDNAKNTVYLQMNSLKPEDTAVYYCNKPLSYGYDYWGQGTQVTVSS | high polyreactivity
QVQLVESGVGLLQAGGSLRLSCAAYGYTMGLYRQAPGKEREFVAAINQTGGSTSADSVKGRFTISRDNANNTVYLQLNSLKPEDTAVYYCAADISVYSDSHDVSINYRYDYWGLGTQVTVSS | low polyreactivity
